The values below come from patent publication US7960155B1, “Cytochrome p450 monooxygenases and their use for oxidizing organic compounds” (BASF Aktiengesellschaft, priority 1999, dated 2011).

A short description of test [1]: Production of indigo using isolated enzymes (colour reaction with indole and NADPH). The test is classed as biochemical. From the text:
It is known that indigo is accessible from indole by microbial transformation (24-26). None of these microbial systems, however, contained a P450 monooxygenase. According to the invention, the catalytic activity of the pure enzyme for indole was first determined. The mutant F87L188A74 was mixed with indole. No color reaction could be observed. […] By adjustment of the pH of the reaction mixture to a value of approximately 11, 30 sec after addition of NADPH, the blue coloration was visible within a few seconds. […] The blue pigment was extracted using ethyl acetate and analyzed by TLC. The blue pigment again separated into a more rapidly running blue component and into a slower running red component. The Rf values and the absorption spectra were identical to those values of the extracts from the fermentation broth. The F87L188A74 mutant of P450 BM-3 is thus an indole hydroxylase.

Test [2] can be described thus: Activity test for the indole hydroxylation (kinetic parameters). Format: biochemical. The note with it: excess of purified enzyme and high indole concentration for the wild type. Here is the method:
The indole hydroxylation activity was tested in a solution which contained 8 μl of a 10-500 mM indole solution in DMSO, 850 μl of tris/HCl buffer (0.1 M, pH 8.2) and 0.6 nmol of P450 BM-3 wild type or mutant in a final volume of 1 ml. The mixture was preincubated for 9 min before the reaction was started by addition of 50 μl of an aqueous 1 mM solution of NADPH. The reaction was stopped after 20 sec by addition of 60 μl of 1.2 M KOH. Within 5 to 30 sec (under aerobic conditions), the enzyme products were converted completely into indigo [Δ^2,2′-biindoline]-3,3′-dione) and indirubin ([Δ^2,3′-biindoline]-2′,3-dione). The indigo production was determined by means of its absorption at 670 nm. […] A linear curve was obtained for indigo production in a reaction time of 40 sec using 0.6 nmol of wild type or P450 BM-3 mutant and 0.05 to 5.0 mM of indole. […] The formation of indirubin was neglected in the determination of the kinetic parameters. The NADPH consumption was determined at 340 nm and calculated as described (17) using an extinction coefficient of 6.2 mM^−1 cm^−1.
Pure samples of the wild-type enzyme P450 BM-3 and of the mutants Leu188Gln, Phe87Val, F87L188 and F87L188A74 were used for the determination of the kinetic parameters of indole hydroxylation.

B1: WT: wild-type cytochrome P450 monooxygenase BM-3 from Bacillus megaterium (SEQ ID NO:2) (protein, listed as Bacillus megaterium)
chain: TIKEMPQPKTFGELKNLPLLNTDKPVQALMKIADELGEIFKFEAPGRVTRYLSSQRLIKEACDESRFDKNLSQALKFVRDFAGDGLFTSWTHEKNWKKAHNILLPSFSQQAMKGYHAMMVDIAVQLVQKWERLNADEHIEVPEDMTRLTLDTIGLCGFNYRFNSFYRDQPHPFITSMVRALDEAMNKLQRANPDDPAYDENKRQFQEDIKVMNDLVDKIIADRKASGEQSDDLLTHMLNGKDPETGEPLDDENIRYQIITFLIAGHETTSGLLSFALYFLVKNPHVLQKAAEEAARVLVDPVPSYKQVKQLKYVGMVLNEALRLWPTAPAFSLYAKEDTVLGGEYPLEKGDELMVLIPQLHRDKTIWGDDVEEFRPERFENPSAIPQHAFKPFGNGQRACIGQQFALHEATLVLGMMLKHFDFEDHTNYELDIKETLTLKPEGFVVKAKSKKIPLGGIPSPSTEQSAKKVRKKAENAHNTPLLVLYGSNMGTAEGTARDLADIAMSKGFAPQVATLDSHAGNLPREGAVLIVTASYNGHPPDNAKQFVDWLDQASADEVKGVRYSVFGCGDKNWATTYQKVPAFIDETLAAKGAENIADRGEADASDDFEGTYEEWREHMWSDVAAYFNLDIENSEDNKSTLSLQFVDSAADMPLAKMHGAFSTNVVASKELQQPGSARSTRHLEIELPKEASYQEGDHLGVIPRNYEGIVNRVTARFGLDASQQIRLEAEEEKLAHLPLAKTVSVEELLQYVELQDPVTRTQLRAMAAKTVCPPHKVELEALLEKQAYKEQVLAKRLTMLELLEKYPACEMKFSEFIALLPSIRPRYYSISSSPRVDEKQASITVSVVSGEAWSGYGEYKGIASNYLAELQEGDTITCFISTPQSEFTLPKDPETPLIMVGPGTGVAPFRGFVQARKQLKEQGQSLGEAHLYFGCRSPHEDYLYQEELENAQSEGIITLHTAFSRMPNQPKTYVQHVMEQDGKKLIELLDQGAHFYICGDGSQMAPAVEATLMKSYADVHQVSEADARLWLQQLEEKGRYAKDVWAG
On to B1, for which, in test [1], the “blue pigment formation with pure enzyme, indole and NADPH” value is reported as “always negative”. In addition, the “indole oxidation activity (in words)” value in test [2] is listed as “not able to oxidize indole”.
